Test results: patent publication US20240410900A1

What was measured:
[1] = molecular target: non-targeted IgG-IL2 (interleukin-2 fused to the C-terminus of a heavy chain of a germline antibody, which is not binding to a target); assay: bridging ELISA, IgG-IL2-Bi and -Dig, binder 0.1 ng/mL assay / 2.4 ng/mL matrix
[2] = molecular target: non-targeted IgG-IL2 (interleukin-2 fused to the C-terminus of a heavy chain of a germline antibody, which is not binding to a target); assay: bridging ELISA, IgG-IL2-Bi and -Dig, binder 0.00 ng/mL (blank)
[3] = molecular target: TCB (T-cell bispecific format) drug antibody; assay: bridging ELISA, drug-Bi and drug-Dig, human pooled serum, binder 63 ng/mL assay / 1250 ng/mL matrix
[4] = molecular target: non-targeted IgG-IL2 (interleukin-2 fused to the C-terminus of a heavy chain of a germline antibody, which is not binding to a target); assay: as above
[5] = molecular target: targeted IgG-IL2 (interleukin-2 fused to the C-terminus of a heavy chain of an antibody specifically binding to a therapeutic target); assay: as above
[6] = molecular target: TCB (T-cell bispecific format) drug antibody; assay: bridging ELISA, drug-Bi and drug-Dig, human pooled serum, binder 0.00 ng/mL (blank)
[7] = molecular target: non-targeted IgG-IL2 (interleukin-2 fused to the C-terminus of a heavy chain of a germline antibody, which is not binding to a target); assay: as above
[8] = molecular target: targeted IgG-IL2 (interleukin-2 fused to the C-terminus of a heavy chain of an antibody specifically binding to a therapeutic target); assay: as above
[9] = molecular target: non-targeted IgG-IL2 (interleukin-2 fused to the C-terminus of a heavy chain of a germline antibody, which is not binding to a target); assay: bridging ELISA, IgG-IL2-Bi and -Dig, binder 250 ng/mL assay / 5000 ng/mL matrix
[10] = molecular target: non-targeted IgG-IL2 (interleukin-2 fused to the C-terminus of a heavy chain of a germline antibody, which is not binding to a target); assay: bridging ELISA, IgG-IL2-Bi and -Dig, binder 0.2 ng/mL assay / 4.9 ng/mL matrix
[11] = molecular target: TCB (T-cell bispecific format) drug antibody; assay: bridging ELISA, drug-Bi and drug-Dig, human pooled serum, binder 1.0 ng/mL assay / 20 ng/mL matrix
[12] = molecular target: non-targeted IgG-IL2 (interleukin-2 fused to the C-terminus of a heavy chain of a germline antibody, which is not binding to a target); assay: as above
[13] = molecular target: targeted IgG-IL2 (interleukin-2 fused to the C-terminus of a heavy chain of an antibody specifically binding to a therapeutic target); assay: as above
[14] = molecular target: TCB (T-cell bispecific format) drug antibody; assay: bridging ELISA, drug-Bi and drug-Dig, human pooled serum, binder 2.0 ng/mL assay / 39 ng/mL matrix
[15] = molecular target: non-targeted IgG-IL2 (interleukin-2 fused to the C-terminus of a heavy chain of a germline antibody, which is not binding to a target); assay: as above
[16] = molecular target: targeted IgG-IL2 (interleukin-2 fused to the C-terminus of a heavy chain of an antibody specifically binding to a therapeutic target); assay: as above
[17] = molecular target: TCB (T-cell bispecific format) drug antibody; assay: bridging ELISA, drug-Bi and drug-Dig, human pooled serum, binder 0.49 ng/mL assay / 10 ng/mL matrix
[18] = molecular target: non-targeted IgG-IL2 (interleukin-2 fused to the C-terminus of a heavy chain of a germline antibody, which is not binding to a target); assay: as above
[19] = molecular target: targeted IgG-IL2 (interleukin-2 fused to the C-terminus of a heavy chain of an antibody specifically binding to a therapeutic target); assay: as above
[20] = molecular target: TCB (T-cell bispecific format) drug antibody; assay: bridging ELISA, drug-Bi and drug-Dig, human pooled serum, binder 31 ng/mL assay / 625 ng/mL matrix
[21] = molecular target: non-targeted IgG-IL2 (interleukin-2 fused to the C-terminus of a heavy chain of a germline antibody, which is not binding to a target); assay: as above
[22] = molecular target: targeted IgG-IL2 (interleukin-2 fused to the C-terminus of a heavy chain of an antibody specifically binding to a therapeutic target); assay: as above
[23] = molecular target: TCB (T-cell bispecific format) drug antibody; assay: bridging ELISA, drug-Bi and drug-Dig, human pooled serum, binder 16 ng/mL assay / 312.5 ng/mL matrix
[24] = molecular target: non-targeted IgG-IL2 (interleukin-2 fused to the C-terminus of a heavy chain of a germline antibody, which is not binding to a target); assay: as above
[25] = molecular target: drug antibody (capture and tracer of the bridging immunoassay of FIGS. 2, 7 and 8; not named); assay: bridging immunoassay, drug antibody as capture and tracer, binder at 1000 ng/ml
[26] = molecular target: non-targeted IgG-IL2 (interleukin-2 fused to the C-terminus of a heavy chain of a germline antibody, which is not binding to a target); assay: bridging ELISA, IgG-IL2-Bi and -Dig, binder 2.0 ng/mL assay / 39 ng/mL matrix

B1: multivalent anti-PG antibody derived from clone 1.7.24 (mixed Pool 2, 3, 4) (antibody, V domains shown)
VH: EVKLLESGGGLVQPGGSLKLSCAASGFDFSRYWMNWVRQAPGKGLEWIGEITPDSSTINYTPSLKDKFIISRDNAKNTLYLQMIKVRSEDTALYYCVRPYDYGAWFASWGQGTLVTVSA
VL: QAVVTQESALTTSPGETVTLTCRSSTGAVTTSNYANWVQEKPDHLFTGLIGGTNKRAPGVPARFSGSLIGDKAALTITGAQTEDEAIYFCALWYSNHWVFGGGTKLTVL
modifications: lysine amines derivatised with SATP or MHS and cross-linked (sites not given)
A signal [AU] [1] of 0.058 AU, a signal [AU] [2] of 0.053 AU and a signal [AU] [3] of 2.86 AU were found for B1 in this work. The signal [AU] [4] was 0.77 AU, the signal [AU] [5] was 2.63 AU and the signal [AU] [6] was 0.0425 AU. The signal [AU] [7] was 0.041 AU, the signal [AU] [8] was 0.0395 AU and the signal [AU] [9] was 3.04 AU. For the same binder, the signal [AU] [10] was 0.0645 AU, the signal [AU] [11] was 0.12 AU and the signal [AU] [12] was 0.0485 AU. For the same binder, the signal [AU] [13] was 0.0975 AU, the signal [AU] [14] was 0.195 AU and the signal [AU] [15] was 0.0615 AU. The signal [AU] [16] was 0.148 AU, the signal [AU] [17] was 0.0835 AU and the signal [AU] [18] was 0.045 AU. The signal [AU] [19] was 0.0675 AU, the signal [AU] [20] was 2.09 AU and the signal [AU] [21] was 0.408 AU. It also gave a signal [AU] [22] of 1.65 AU, a signal [AU] [23] of 1.19 AU and a signal [AU] [24] of 0.23 AU. It also gave a signal-to-noise ratio (S/N) [25] of 83.6 and a signal [AU] [26] of 0.165 AU.
